Type in all cases: cell-based, human
The subject of one assay is IL-8. Description: IL-8 production by keratinocytes (ELISA). Particulars: HaCaT and HEKn cells subjected to immune stimuli, ELISA. How it is done:
(§1) To measure the concentrations of proinflammatory cytokines secreted by keratinocytes, 2×10^4 cells were seeded in 96-well plates. Cells were incubated for 24 hours and then treated with 50 μg/ml LPS, 100 ng/ml human TNF-α, 100 or 200 ng/ml human IL-17A, 200 ng/ml human IL-22, 100 ng/ml human IL-23, or 50 ng/ml IFN-γ at 37° C. for 48 hours. In addition, the MEK inhibitor PD98059 was added along with stimulation by LPS or IL-17A (48 hours). The supernatants were then collected and analyzed by ELISAs, which were performed using a specific combination of paired antibodies (capture and detection antibodies).

In another assay the test system is galectin-7. Description: Galectin-7 expression in keratinocytes (real-time PCR, immunoblot). Particulars: HaCaT cells, treated with cytokines for 2 days, immunoblot. As to the method:
Human keratinocyte cell line HaCaT was maintained at 37° C. in Dulbecco's modified Eagle's medium (DMEM) supplemented with 10% of fetal bovine serum (FBS), 2 mM glutamine, 100 U/ml penicillin and 100 μg/ml streptomycin. Short hairpin RNA (shRNA) reagents were obtained from the National RNAi Core Facility located at the Institute of Molecular Biology and Genomic Research Center, Academia Sinica, supported by the National Core Facility Program for Biotechnology Grants of NSC. Four shRNAs with clone IDs of TRCN0000057393, TRCN0000057394, TRCN0000057395, and TRCN0000057396 were used to generate stable galectin-7 knockdown HaCaT clones. HaCaT cells were infected with one of the four shRNA-expressing lentiviruses and puromycin was employed to select stable cell clones after 3 days of infection. After puromycin selection, four individual pooled clones were cultured in puromycin-free medium for 2 weeks before further analysis. […]
Cells were harvested and lysed in RIPA lysis buffer containing 1% of Triton X-100 and a protease inhibitor cocktail, and total protein concentrations were measured with a protein assay kit. Proteins in the samples of the lysates with the same amounts of total protein were separated by sodium dodecyl sulfate polyacrylamide gel electrophoresis (SDS-PAGE) and analyzed by immunoblotting. […] Protein quantification was performed by software. […]

A further assay relates to IL-6. The experiment in a line: IL-6 production by keratinocytes (ELISA). The following applies: HaCaT and HEKn cells subjected to immune stimuli, ELISA. As to the method:
as §1

B1: IL-23: cytokine known to promote psoriatic inflammation (protein, UniProt Q9NPF7 20-189; P29460 23-328, looked up)
Interleukin-23 subunit alpha: RAVPGGSSPAWTQCQQLSQKLCTLAWSAHPLVGHMDLREEGDEETTNDVPHIQCGDGCDPQGLRDNSQFCLQRIHQGLIFYEKLLGSDIFTGEPSLLPDSPVGQLHASLLGLSQLLQPEGHHWETQQIPSLSPSQPWQRLLLRFKILRSLQAFVAVAARVFAHGAATLSP
Interleukin-12 subunit beta: IWELKKDVYVVELDWYPDAPGEMVVLTCDTPEEDGITWTLDQSSEVLGSGKTLTIQVKEFGDAGQYTCHKGGEVLSHSLLLLHKKEDGIWSTDILKDQKEPKNKTFLRCEAKNYSGRFTCWWLTTISTDLTFSVKSSRGSSDPQGVTCGAATLSAERVRGDNKEYEYSVECQEDSACPAAEESLPIEVMVDAVHKLKYENYTSSFFIRDIIKPDPPKNLQLKPLKNSRQVEVSWEYPDTWSTPHSYFSLTFCVQVQGKSKREKKDRVFTDKTSATVICRKNASISVRAQDRYYSSSWSEWASVPCS
As for B1, in the assay on IL-8, the IL-8 production result was “only IL-17A (FIG. 2), TNF-α, and LPS (data not shown) induced”. Besides, the galectin-7 protein expression result in the assay with galectin-7 is recorded as “modest effects”. Besides, in the assay on IL-6, the IL-6 production result was “only IL-17A (FIG. 2), TNF-α, and LPS (data not shown) induced”.

B2: IL-22: immune stimulus (protein, UniProt Q9GZX6 34-179, looked up)
Interleukin-22: APISSHCRLDKSNFQQPYITNRTFMLAKEASLADNNTDVRLIGEKLFHGVSMSERCYLMKQVLNFTLEEVLFPQSDRFQPYMQEVVPFLARLSNRLSTCHIEGDDLHIQRNVQKLKDTVKKLGESGEIKAIGELDLLFMSLRNACI
Take B2: the IL-8 production result in the assay on IL-8 is “only IL-17A (FIG. 2), TNF-α, and LPS (data not shown) induced”. Also, the IL-6 production result in the assay with IL-6 was “only IL-17A (FIG. 2), TNF-α, and LPS (data not shown) induced”.

The values are drawn from US11286304B2, “Anti-galectin-7 antibody, kit comprising the same, and uses thereof” (Academia Sinica, priority 2018, dated 2022).
